Experimental data from PMC4778250 (ACS Central Science, 2015).

Legend:
[1] = target: T1, mouse Class II MHC complex (Mus musculus C57BL/6 (H-2b; I-A b), UniProt P14434;P14483); experiment: flow cytometry on cells
[2] = target: T1, mouse Class II MHC complex; experiment: flow cytometry on cells; remark: listed apart in the source

T1 sequence (P14434 24-256, chain 1 of 2): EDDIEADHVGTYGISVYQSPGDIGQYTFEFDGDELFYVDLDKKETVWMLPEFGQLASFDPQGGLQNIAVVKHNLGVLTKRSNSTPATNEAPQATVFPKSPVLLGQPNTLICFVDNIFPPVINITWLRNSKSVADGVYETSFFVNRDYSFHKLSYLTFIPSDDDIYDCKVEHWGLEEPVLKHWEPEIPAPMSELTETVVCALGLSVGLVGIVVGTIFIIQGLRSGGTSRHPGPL
T1 sequence (P14483 28-265, chain 2 of 2): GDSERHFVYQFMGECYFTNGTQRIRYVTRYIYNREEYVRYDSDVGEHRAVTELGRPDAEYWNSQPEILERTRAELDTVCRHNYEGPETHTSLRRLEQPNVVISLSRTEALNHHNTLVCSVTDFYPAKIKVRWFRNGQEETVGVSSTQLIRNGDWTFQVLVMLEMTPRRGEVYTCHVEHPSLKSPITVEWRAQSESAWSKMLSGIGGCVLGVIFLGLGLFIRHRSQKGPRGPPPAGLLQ

EC50 [1] [nM]	binding result [2]	Binder
55 to 60	–	VHH7 (anti-mouse Class II MHC single domain antibody) (VHH) VHH: QVQLQESGGGLVQAGDSLRLSCAASGRTFSRGVMGWFRRAPGKEREFVAIFSGSSWSGRSTYYSDSVKGRFTISRDNAKNTVYLQMNGLKPEDTAVYYCAAGYPEAYSAYGRESTYDYWGQGTQVTVSS
–	no binding	VHH4 (specific for human Class II MHC) (VHH) VHH: QVQLQESGGGLVQAGGSLRLSCAASGSTLSSYGMGWYRQAPGKQREVVATISATGSISYADSVKGRFTISRDSAKNTMYLQLNSLTPEDTAVYYCNTIYRSTLYWGQGTQVTVSS
